The values below come from patent publication US20240100176A1 (Eli Lilly, published 2024).

In experiment [1] the target is T1, hexahistidine-tagged human IL-4Rα extracellular domain (human, UniProt P24394 26-232).
T1 construct: In the MSD assay the plate coat is the His-tagged ECD; also called human IL-4Rα ECD; Wild type receptor; not shown: hexahistidine tag
T1 sequence: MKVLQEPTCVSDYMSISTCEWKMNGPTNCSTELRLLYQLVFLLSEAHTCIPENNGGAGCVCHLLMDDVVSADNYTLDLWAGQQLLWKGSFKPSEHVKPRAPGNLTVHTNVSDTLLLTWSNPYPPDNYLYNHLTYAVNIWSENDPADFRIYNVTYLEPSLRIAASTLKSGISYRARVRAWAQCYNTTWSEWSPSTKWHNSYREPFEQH
Nature of the experiment: competition MSD ELISA (solution equilibrium, 37 °C), apparent KD, single experiment. Here is the method:
(§1) Example 3a. […] A 96-well multi-array plate (Meso Scale Diagnostics, Cat. #L15XA-3) was coated at 4° C. overnight with 0.5 μg/mL hexahistidine-tagged human or cynomolgus monkey IL-4Rα ECD in phosphate buffered saline (PBS). Following coating, plates were washed 10 times with 200 μL PBST (PBS with 0.05% Tween® 20) and blocked with 300 μL/well of PBS casein blocking buffer (Pierce, Cat. #37528) at 37° C. for 1 hour. Plates were then washed 10 times as above, and 50 μL of the preincubated antibody:IL-4Rα dilution series was transferred to the wells and incubated at 37° C. with 300 rpm shaking for […]. Plates were washed 10 times with PBST, 50 μL of 1 μg/mL anti-human antibody sulfo-tag 20 (Meso Scale Diagnostics, Cat. #R32AJ-1) was added to the plates for the assay of Table 7a, and anti-Human NHP Kappa Light chain SULFO-TAG 20 (Meso Scale Diagnostics, Cat #D20TF-6) was added to the plates for the assay of Table 7b, and plates were incubated at 37° C. with 300 rpm shaking for 30 minutes. Plates were washed 10 times with PBST, 150 μL/well of 1× Read Buffer T was added to the wells and analyzed on a SECTOR® Imager 6000 (Meso Scale Diagnostics) 15 min after buffer addition. The apparent KD is determined by fitting a sigmoidal curve to the electrochemiluminescence (ECL) response vs. log (soluble IL-4Rα concentration) using GraphPad Prism 9. Data is graphed with normalized ECL values.
For orientation: ELISA stands for enzyme-linked immunosorbent assay.

In experiment [2] the target is T2, hexahistidine-tagged cynomolgus monkey IL-4Rα extracellular domain (cynomolgus monkey, UniProt P24394 26-231 (human entry)).
T2 construct: also called cynomolgus monkey IL-4Rα ECD; not shown: hexahistidine tag
T2 chain: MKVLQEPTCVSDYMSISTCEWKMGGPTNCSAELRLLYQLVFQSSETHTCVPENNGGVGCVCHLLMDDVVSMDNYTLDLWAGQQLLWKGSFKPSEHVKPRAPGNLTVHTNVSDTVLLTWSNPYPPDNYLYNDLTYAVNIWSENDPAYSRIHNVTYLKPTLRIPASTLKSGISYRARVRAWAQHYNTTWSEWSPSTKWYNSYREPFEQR
The description is as above. Here is the method: as §1

The target in experiment [3] is T3, human IL-4Rα on cells (human PBMC B cells and CD4+ T cells, Daudi cells, HEK-Blue IL-4/IL-13 cells, myeloid … (human, UniProt P24394 26-825)).
T3 sequence: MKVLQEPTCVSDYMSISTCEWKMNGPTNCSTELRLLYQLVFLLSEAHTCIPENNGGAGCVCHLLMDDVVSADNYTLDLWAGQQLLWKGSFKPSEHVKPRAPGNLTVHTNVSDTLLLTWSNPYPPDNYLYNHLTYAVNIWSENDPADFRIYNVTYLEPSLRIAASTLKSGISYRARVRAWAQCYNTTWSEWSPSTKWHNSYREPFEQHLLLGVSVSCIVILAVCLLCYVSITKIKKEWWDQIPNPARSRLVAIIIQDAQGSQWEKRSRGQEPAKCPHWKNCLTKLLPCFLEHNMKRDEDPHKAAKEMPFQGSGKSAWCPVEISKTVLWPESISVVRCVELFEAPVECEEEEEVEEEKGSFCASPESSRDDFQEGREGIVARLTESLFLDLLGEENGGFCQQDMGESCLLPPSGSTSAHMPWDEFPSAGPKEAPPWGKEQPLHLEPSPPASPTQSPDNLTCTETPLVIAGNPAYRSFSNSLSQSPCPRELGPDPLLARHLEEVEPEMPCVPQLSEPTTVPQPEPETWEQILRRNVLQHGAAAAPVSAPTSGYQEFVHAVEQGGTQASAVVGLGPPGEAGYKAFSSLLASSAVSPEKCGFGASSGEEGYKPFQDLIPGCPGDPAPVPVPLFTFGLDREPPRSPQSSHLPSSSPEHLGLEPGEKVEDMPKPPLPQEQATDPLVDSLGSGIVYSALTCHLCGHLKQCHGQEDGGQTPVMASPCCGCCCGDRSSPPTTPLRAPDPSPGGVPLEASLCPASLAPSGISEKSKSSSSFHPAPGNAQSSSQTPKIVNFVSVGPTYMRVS
Put plainly: flow cytometry on human PBMCs, B cells, Alexa Fluor 647 labelled antibody. As to the method: Example 3b. Binding to B cells and T cells: Binding of the exemplified anti-human IL-4Rα antibodies to B cells and T cells was tested in a Fluorescence Activated Cell Sorting (FACS) assay. […] Freshly isolated cells PBMCs were resuspended at 2×10⁶ cells/mL and allowed to rest for 15 minutes at room temperature, then plated at 100 μL/well into a round bottom 96-well plate (COSTAR®) and washed with FACS buffer (PBS containing 2% fetal bovine serum from Corning®). Exemplified anti-human IL-4Rα antibodies and the respective control IgG antibodies conjugated to Alexa Fluor® 647 according to manufacturer's protocol (Thermo Fisher Scientific) were added to the wells at 66.67 nM and diluted 4-fold in duplicate. Equivalent volume of 2× antibody cocktail containing: Human TruStain FcX™. FITC anti-human CD3 Antibody, Alexa Fluor® 700 anti-human CD4 Antibody (all from Biolegend®) and CD20 Monoclonal Antibody (2H7), PerCP-Cyanine5.5 (Thermo Fisher Scientific) was then added to the wells. Cells were incubated at 4° C. for 30 minutes, washed twice with FACS buffer and resuspended in a final volume of 100 μL FACS buffer. Viability dye, Sytox™ blue (Thermo Fisher Scientific), was added and the samples were analyzed via a flow cytometer (LSRFortessa™ X-20; BD BIOSCIENCES). Data analysis was performed using FlowJo software and statistical analysis was performed using GraphPad Prism 9. […]
(In general: Flow cytometry measures light scatter and fluorescence of single cells or particles in a stream.)

In experiment [4] the target is T3, human IL-4Rα on cells (human PBMC B …). Nature of the experiment: cell-based or functional assay.
Experiment [5] concerns the target T4, hexahistidine tagged human IL-4Rα ECD containing a C182L mutation (human, UniProt P24394 26-232).
T4 construct: Stated for the Ab9 Fab crystal; also called IL-4Rα ECD (crystallisation construct); not shown: hexahistidine tag
Put plainly: X-ray co-crystal structure.

Bounds are passed on as bounds.

B1: anti-human IL-4Rα antibody Ab4 (antibody, human IgG4 S228P, kappa)
heavy: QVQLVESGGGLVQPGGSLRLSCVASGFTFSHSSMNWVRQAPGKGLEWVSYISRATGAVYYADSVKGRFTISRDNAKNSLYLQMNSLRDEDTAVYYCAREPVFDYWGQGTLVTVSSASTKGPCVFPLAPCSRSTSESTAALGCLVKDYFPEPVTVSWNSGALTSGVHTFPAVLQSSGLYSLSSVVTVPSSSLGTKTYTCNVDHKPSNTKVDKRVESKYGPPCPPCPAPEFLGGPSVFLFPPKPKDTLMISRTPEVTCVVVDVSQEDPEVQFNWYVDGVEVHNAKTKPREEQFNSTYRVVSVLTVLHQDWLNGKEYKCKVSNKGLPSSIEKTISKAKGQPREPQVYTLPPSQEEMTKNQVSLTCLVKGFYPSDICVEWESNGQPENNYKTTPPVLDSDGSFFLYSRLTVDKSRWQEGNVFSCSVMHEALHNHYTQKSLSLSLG
light: DIQMTQSPSAMSASVGDRVTITCRASQDISNYLAWFQQKPGKVPTRLIYAASSLQSGVPSRFSGSGSGTEFTLTISSLQPEDFATYYCLQWSSYPRTFGQGTKVEIKRTVAAPSVFIFPPSDEQLKSGTASVVCLLNNFYPREAKVQWKVDNALQSGNSQESVTEQDSKDSTYSLSSTLTLSKADYEKHKVYACEVTHQGLSSPVTKSFNRGEC
Consider B1, for which the results for the Kd in experiment [1] and in experiment [2] were 0.0246 nM and 0.0315 nM, respectively.

B2: effector null anti-human IL-4Rα antibody Ab8 (antibody, human IgG1, kappa, L234A L235A)
heavy: QVQLVESGGGLVQPGGSLRLSCVASGFTFSHSSMNWVRQAPGKGLEWVSYISRATGAVYYADSVKGRFTISRDNAKNSLYLQMNSLRDEDTAVYYCAREPVFDYWGQGTLVTVSSASTKGPCVFPLAPSSKSTSGGTAALGCLVKDYFPEPVTVSWNSGALTSGVHTFPAVLQSSGLYSLSSVVTVPSSSLGTQTYICNVNHKPSNTKVDKRVEPKSCDKTHTCPPCPAPEAAGGPSVFLFPPKPKDTLMISRTPEVTCVVVDVSHEDPEVKFNWYVDGVEVHNAKTKPREEQYNSTYRVVSVLTVLHQDWLNGKEYKCKVSNKALAAPIEKTISKAKGQPREPQVYTLPPSREEMTKNQVSLTCLVKGFYPSDICVEWESNGQPENNYKTTPPVLDSDGSFFLYSKLTVDKSRWQQGNVFSCSVMHEALHNHYTQKSLSLSPGK
light: DIQMTQSPSAMSASVGDRVTITCRASQDISNYLAWFQQKPGKVPTRLIYAASSLQSGVPSRFSGSGSGTEFTLTISSLQPEDFATYYCLQWSSYPRTFGQGTKVEIKRTVAAPSVFIFPPSDEQLKSGTASVVCLLNNFYPREAKVQWKVDNALQSGNSQESVTEQDSKDSTYSLSSTLTLSKADYEKHKVYACEVTHQGLSSPVTKSFNRGEC
notes: Effector null backbone
What is called EC50 is the concentration needed to bring the measured effect to its halfway point. Take B2: in experiment [3], the half-maximal effective concentration (EC50) came out at 1.07 nM.

B3: anti-human IL-4Rα antibody Ab9 (antibody, human IgG4 S228P, kappa, V domains shown)
VH: QVQLVESGGGLVQPGGSLRLSCAASGFTFSHSSMNWVRQAPGKGLEWVSYISRATGAVYYADSVKGRFTISRDNAKNSLYLQMNSLRDEDTAVYYCAREPVFDYWGQGTLVTVSS
VL: DIQMTQSPSAMSASVGDRVTITCRASQGISNYLAWFQQKPGKVPTRLIYAASSLQSGVPSRFSGSGSGTEFTLTISSLQPEDFATYYCLQWSSYPRTFGQGTKVEIKR
Regarding B3, in experiment [4], the “IL-4 IC50 (nM): inhibition of IL-4 induced SEAP activity in HEK-Blue IL-4R and IL-13R expressing cells” value turned out to be 0.03 nM; the “IL-13 IC50 (nM): inhibition of IL-13 induced SEAP activity in HEK-Blue IL-4R and IL-13R expressing cells” value worked out at 0.24 nM.

B4: anti-human IL-4Rα antibody Ab10 (antibody, human IgG4 S228P, kappa, F234A L235A, V domains shown)
VH: QVQLVESGGGLVQPGGSLRLSCAASGFTFSISSMNWVRQAPGKGLEWVSYISRATGAIYYADSVKGRFTISRNNAKNSLYLQMNSLRDEDTAVYYCAREPVFDYWGQGTLVTVSS
VL: DIQMTQSPSAMSASVGDRVTITCRASQGISNYLAWFQQKPGKVPTRLIYAASSLQSGVPSRFSGSGSGTEFTLTISSLQPEDFATYYCLQHNSYPRTFGQGTKVEIKR
For the molecule B4, in experiment [4], the “IL-4 IC50 (nM): inhibition of IL-4 induced SEAP activity in HEK-Blue IL-4R and IL-13R expressing cells” value worked out at 3.45 nM; the “IL-13 IC50 (nM): inhibition of IL-13 induced SEAP activity in HEK-Blue IL-4R and IL-13R expressing cells” value was greater than 35 nM.

B5: Ab9 Fab (hexahistidine tagged IgG1 heavy chain truncated after CH1, Crystal Kappa light chain) (Fab, V domains shown)
VH: QVQLVESGGGLVQPGGSLRLSCAASGFTFSHSSMNWVRQAPGKGLEWVSYISRATGAVYYADSVKGRFTISRDNAKNSLYLQMNSLRDEDTAVYYCAREPVFDYWGQGTLVTVSS
VL: DIQMTQSPSAMSASVGDRVTITCRASQGISNYLAWFQQKPGKVPTRLIYAASSLQSGVPSRFSGSGSGTEFTLTISSLQPEDFATYYCLQWSSYPRTFGQGTKVEIK
notes: Construct for co-crystallisation; also called Fab portion of Ab9; Ab9 variant
As for B5, in experiment [5], the binding result is reported as “binds”.

B6: Ab1 Fab (Crystal Kappa design) (Fab, V domains shown)
VH: QVQLVESGGGLVQPGGSLRLSCVASGFTFSHSSMNWVRQAPGKGLEWVSYISRATGAVYYADSVKGRFTISRDNAKNSLYLQMNSLRDEDTAVYYCAREPVFDYWGQGTLVTVSS
VL: DIQMTQSPSAMSASVGDRVTITCRASQDISNYLAWFQQKPGKVPTRLIYAASSLQSGVPSRFSGSGSGTEFTLTISSLQPEDFATYYCLQWSSYPRTFGQGTKVEIK
notes: Construct for co-crystallisation; also called Fab of the Ab1; anti-human IL-4Rα Ab1 Fab
As to B6, the binding result in experiment [5] is on record as “binds”.
